Data on 9 variants can be found in publication PMC11746154.

B1: Gal4AD-Spo11 [S. cerevisiae] / LexA-Rec102 [S. cerevisiae] (parent)
chain 1: MALEGLRKKYKTRQELVKALTPKRRSIHLNSNGHSNGTPCSNADVLAHIKHFLSLAANSLEQHQQPISIVFQNKKKKGDTSSPDIHTTLDFPLNGPHLCTHQFKLKRCAILLNLLKVVMEKLPLGKNTTVRDIFYSNVELFQRQANVVQWLDVIRFNFKLSPRKSLNIIPAQKGLVYSPFPIDIYDNILTCENEPKMQKQTIFPGKPCLIPFFQDDAVIKLGTTSMCNIVIVEKEAVFTKLVNNYHKLSTNTMLITGKGFPDFLTRLFLKKLEQYCSKLISDCSIFTDADPYGISIALNYTHSNERNAYICTMANYKGIRITQVLAQNNEVHNKSIQLLSLNQRDYSLAKNLIASLTANSWDIATSPLKNVIIECQREIFFQKKAEMNEIDARIFEYK
chain 2: MARDITFLTVFLESCGAVNNDEAGKLLSAWTSTVRIEGPESTDSNSLYIPLLPPGMLKIKLNFKMNDRLVTEEQELFTKLREIVGSSIRFWEEQLFYQVQDVSTIENHVILSLKCTILTDAQISTFISKPRELHTHAKGYPEIYYLSELSTTVNFFSKEGNYVEISQVIPHFNEYFSSLIVSQLEFEYPMVFSMISRLRLKWQQSSLAPISYALTSNSVLLPIMLNMIAQDKSSTTAYQILCRRRGPPIQNFQIFSLPAVTYNK

In the experiment the parent is B1. Put plainly: Y2H quantitative β-galactosidase assay. Particulars: with LexA-Rec102 [S. cerevisiae]; parent: 1; read off a plot.
In the case of chain 1 Q102A, the response (normalized β-gal units) came to 1.2.

For chain 1 L60A, the response (normalized β-gal units) is 0.62.

Consider chain 1 V17A, for which the response (normalized β-gal units) was determined as 0.5.

In the case of chain 1 L105A, the response (normalized β-gal units) stood at 0.05.

For chain 1 N94A, the response (normalized β-gal units) was 0.07.

On to chain 1 L93A, for which the response (normalized β-gal units) is 0.15.

Consider chain 1 L16A, for which the response (normalized β-gal units) is 0.3.

In the case of chain 1 L20A, the response (normalized β-gal units) is 0.35.

On to chain 1 L112A, for which the response (normalized β-gal units) stood at 0.03.
